Source: the supplement of paper PMC9233669
Fewer inactive variants are shown than the library holds.

Experiments:
biotinyl-Trp-oxazolone = assay: self-aminoacylation, catalytic enhancement (BWO) (fold over background); higher = more active; k-Seq, kA / k0A0; sequences stand for … in GGGAAUGGAUCCACAUCUACGAAUUC…UUCACUGCAGACUUGACGAAGCUG
Method in brief: (§1)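 Each biotinyl-aminoacyl-oxazolone, at 2–1250 μM, was incubated with mutagenized RNA pools (0.43 μM) carrying a 21-nt variable region. The 50 μL reactions contained HEPES/NaCl/KCl/MgCl2/CaCl2 buffer with 5% acetonitrile at pH 6.9–7.0 and ran for 90 minutes at room temperature. After streptavidin capture, RNA was measured by qPCR in triplicate and by Illumina sequencing, and catalytic enhancement was calculated as median kA over the uncatalyzed rate from a pseudo-first-order fit of per-sequence fraction reacted.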

biotinyl-Ile-oxazolone = assay: self-aminoacylation, catalytic enhancement (BIO) (fold over background); higher = more active; k-Seq, kA / k0A0; sequences stand for … in GGGAAUGGAUCCACAUCUACGAAUUC…UUCACUGCAGACUUGACGAAGCUG
Method in brief: as §1

biotinyl-Leu-oxazolone = assay: self-aminoacylation, catalytic enhancement (BLO) (fold over background); higher = more active; k-Seq, kA / k0A0; sequences stand for … in GGGAAUGGAUCCACAUCUACGAAUUC…UUCACUGCAGACUUGACGAAGCUG
Method in brief: as §1

biotinyl-Met-oxazolone = assay: self-aminoacylation, catalytic enhancement (BMO) (fold over background); higher = more active; k-Seq, kA / k0A0; sequences stand for … in GGGAAUGGAUCCACAUCUACGAAUUC…UUCACUGCAGACUUGACGAAGCUG
Method in brief: as §1

biotinyl-Val-oxazolone = assay: self-aminoacylation, catalytic enhancement (BVO) (fold over background); higher = more active; k-Seq, kA / k0A0; sequences stand for … in GGGAAUGGAUCCACAUCUACGAAUUC…UUCACUGCAGACUUGACGAAGCUG
Method in brief: as §1

biotinyl-Phe-oxazolone = assay: self-aminoacylation, catalytic enhancement (BFO) (fold over background); higher = more active; k-Seq, kA / k0A0; sequences stand for … in GGGAAUGGAUCCACAUCUACGAAUUC…UUCACUGCAGACUUGACGAAGCUG
Method in brief: as §1

Sequence | self-aminoacylation (biotinyl-Trp-oxazolone) | self-aminoacylation (biotinyl-Ile-oxazolone) | self-aminoacylation (biotinyl-Leu-oxazolone) | self-aminoacylation (biotinyl-Met-oxazolone) | self-aminoacylation (biotinyl-Val-oxazolone) | self-aminoacylation (biotinyl-Phe-oxazolone)
AUUCACCUAGGUGUUCGGGUG [Fam2.2 aminoacylation ribozyme variant] | 3.74 | 2.79 | 4.31 | 3.31 | 2.93 | 21.7
CCACACUUCAAGGAAUCAGUC [Fam1B.1 aminoacylation ribozyme variant] | 1.08 | 0.668 | 0.62 | 0.614 | 0.757 | 2.49
CCACACUUUAAGCAAUCGGUG [Fam1B.1 aminoacylation ribozyme variant] | 3.9 | 2.93 | 5.4 | 3.89 | 2.38 | 22.9
AUUACCAUGGUAAUCGAGUGA [Fam2.1 aminoacylation ribozyme variant] | 10.7 | 3.78 | 8.44 | 8.72 | 3.89 | 50.3
AAGUUUCCUGAUAGUCGCAAG [Fam3.1 aminoacylation ribozyme variant] | 1.49 | 1.67 | 1.69 | 1.69 | 1.54 | 3.33
AUUCCCCUGGUCAUCGACUGA [Fam2.1 aminoacylation ribozyme variant] | 1.41 | 1.54 | 1.25 | 1.23 | 1.64 | 1.59
AUUACCGUGGUCGUCGAGUGA [Fam2.1 aminoacylation ribozyme variant] | 0.591 | 1.2 | 1.18 | 1.09 | 1.06 | 2.81
AUCAACCUAGGUCAUCGGGUG [Fam2.2 aminoacylation ribozyme variant] | 7.85 | 4.88 | 10.2 | 7.11 | 5.02 | 36.3
AUUCAAGUAGGUCAUCGGGUG [Fam2.2 aminoacylation ribozyme variant] | 5.33 | 3.73 | 7.04 | 5.19 | 3.43 | 36.6
GCACACUUGAAGCAAUCGGUC [Fam1B.1 aminoacylation ribozyme variant] | 1.99 | 1.45 | 1.29 | 1.11 | 1.4 | 1.46
AUUCACCUUGGUCACCGGGUG [Fam2.2 aminoacylation ribozyme variant] | 5.4 | 4.82 | 6.72 | 5.58 | 4.2 | 27.5
CCACACUUGAAGCAAUGGGUC [Fam1B.1 aminoacylation ribozyme variant] | 0.833 | 0.99 | 0.739 | 0.696 | 0.811 | 1.26
AUUACCCUGUUCAACGAGUGA [Fam2.1 aminoacylation ribozyme variant] | 13.4 | 5.25 | 11.8 | 11.2 | 5.18 | 57
CUAAUUCAAACAAUCUGUCUG [Fam1A.1 aminoacylation ribozyme variant] | 0.748 | 0.784 | 0.525 | 0.64 | 0.665 | 1.1
AUUCACCUAGAUUAUCGGGUG [Fam2.2 aminoacylation ribozyme variant] | 6.65 | 4.48 | 9 | 7.21 | 4.18 | 53.7
CUACUUCAAACAGUGGGUCUG [Fam1A.1 aminoacylation ribozyme variant] | 0.989 | 0.995 | 0.935 | 0.764 | 0.823 | 0.834
AUUACCCUGUUUAUCGAGUGA [Fam2.1 aminoacylation ribozyme variant] | 15.7 | 5.5 | 12.3 | 12.6 | 6.02 | 62.5
AUUCACCUAGGUCAUCGUGUC [Fam2.2 aminoacylation ribozyme variant] | 0.514 | 0.461 | 0.498 | 0.403 | 0.474 | 0.307
AAAUUUACUAAUAGUCGCAAG [Fam3.1 aminoacylation ribozyme variant] | 2.31 | 2.35 | 1.89 | 2.27 | 2.21 | 3.14
AUUCACCUAAGUCAUCGGGUC [Fam2.2 aminoacylation ribozyme variant] | 1.78 | 1.01 | 1.13 | 1.42 | 1.53 | 1.31
GAGUUUGCUAAUGGUCGCAAG [Fam3.1 aminoacylation ribozyme variant] | 1.16 | 0.99 | 0.903 | 0.779 | 1.02 | 2.82
AUUCACCUAGAUCAUCGGGCG [Fam2.2 aminoacylation ribozyme variant] | 1.28 | 1.96 | 2.33 | 3.12 | 1.93 | 8.81
AUUCCCCUGGUCAUCGAAUGA [Fam2.1 aminoacylation ribozyme variant] | 2.15 | 2.24 | 2.09 | 2.45 | 1.96 | 2.91
GUUCACCUAGGUCAUCUGGUG [Fam2.2 aminoacylation ribozyme variant] | 2.12 | 1.71 | 2.56 | 2.62 | 1.71 | 8.36
AUUCACCUAGGUCAUCCGGGG [Fam2.2 aminoacylation ribozyme variant] | 3.23 | 3.2 | 4.27 | 3.21 | 2.84 | 7.28
AUUACCCUGGUCAUCGUUUGA [Fam2.1 aminoacylation ribozyme variant] | 0.734 | 0.923 | 0.963 | 0.71 | 0.821 | 0.693

Sequence | self-aminoacylation (biotinyl-Trp-oxazolone) | self-aminoacylation (biotinyl-Ile-oxazolone) | self-aminoacylation (biotinyl-Leu-oxazolone) | self-aminoacylation (biotinyl-Met-oxazolone) | self-aminoacylation (biotinyl-Val-oxazolone) | self-aminoacylation (biotinyl-Phe-oxazolone)
CCACACUUCAAGCAACCGGUC [Fam1B.1 aminoacylation ribozyme variant] | 0.935 | 0.933 | 0.721 | 0.783 | 1.01 | 1.31
CUCCUUUAAACAAUCGGUCUG [Fam1A.1 aminoacylation ribozyme variant] | 1.36 | 0.972 | 0.712 | 1.12 | 0.974 | 1.73
CCACACUUCAAGCAAGCGGCC [Fam1B.1 aminoacylation ribozyme variant] | 1.46 | 2.38 | 3.28 | 2.63 | 2.96 | 0.898
AUUCACCUAGGUCAUCACGUG [Fam2.2 aminoacylation ribozyme variant] | 3.56 | 2.03 | 4.54 | 3.99 | 2.62 | 23.1
CCACACUUCAAGCAAUCUGGC [Fam1B.1 aminoacylation ribozyme variant] | 0.834 | 0.851 | 0.804 | 0.71 | 0.861 | 0.94
CCAGACUUGAAGCAAUCGGUC [Fam1B.1 aminoacylation ribozyme variant] | 1.07 | 1.07 | 1.16 | 1.08 | 1.12 | 0.942
AUUACCCCGGACAUCGAGUGA [Fam2.1 aminoacylation ribozyme variant] | 5.47 | 2.38 | 4.04 | 4.74 | 2.48 | 19.6
ACUACACUGGUCAUCGAGUGA [Fam2.1 aminoacylation ribozyme variant] | 5.78 | 3.3 | 4.81 | 4.45 | 3 | 13.7
AAGUUUACUAAUAGUCUCAAG [Fam3.1 aminoacylation ribozyme variant] | 1.23 | 1.15 | 1.11 | 0.844 | 1.29 | 2.39
AUUACCCGGGUGAUCGAGUGA [Fam2.1 aminoacylation ribozyme variant] | 8.54 | 3.2 | 7.76 | 7.21 | 4.2 | 46.1
CUACUACAAACAAUCGGUAUG [Fam1A.1 aminoacylation ribozyme variant] | 0.505 | 0.617 | 0.454 | 0.597 | 0.584 | 0.567
AAGUUUACUAAUAGUCGCAUG [Fam3.1 aminoacylation ribozyme variant] | 1.68 | 1.49 | 1.34 | 1.25 | 1.13 | 2.25
CUACUUCAUACAAUCGGUCUG [Fam1A.1 aminoacylation ribozyme variant] | 0.553 | 0.707 | 0.643 | 0.668 | 0.743 | 0.808
CUGCUUCAAACUAUCGGUCUG [Fam1A.1 aminoacylation ribozyme variant] | 0.937 | 0.856 | 0.976 | 0.752 | 1.07 | 1.35
CCACACUUCAAGCAACCGAUC [Fam1B.1 aminoacylation ribozyme variant] | 0.75 | 0.665 | 0.45 | 0.559 | 0.684 | 1.05
AAAUUUGCUGAUAGUCGCAAG [Fam3.1 aminoacylation ribozyme variant] | 2.23 | 1.73 | 1.86 | 1.97 | 1.69 | 2.14
AUCACCCUGGUCAUGGAGUGA [Fam2.1 aminoacylation ribozyme variant] | 6.96 | 3.54 | 6.86 | 6.29 | 3.58 | 34
AUCACCCUGGUUAUCGAGUGA [Fam2.1 aminoacylation ribozyme variant] | 12.2 | 4.98 | 13.5 | 12 | 5.37 | 86.5
AUUCACCUAGGUCACCGGGUG [Fam2.2 aminoacylation ribozyme variant] | 4.63 | 3.51 | 6.44 | 4.95 | 3.55 | 32.2
CUUACCCUGGUCAUCGAGCGA [Fam2.1 aminoacylation ribozyme variant] | 2.72 | 1.36 | 1.96 | 2.13 | 1.35 | 1.09
AAGUUUGCUAAUAGCCGAAAG [Fam3.1 aminoacylation ribozyme variant] | 1.28 | 1.09 | 1.03 | 0.766 | 0.677 | 1.6
AUUCACCUAGGUCUUCGGGCG [Fam2.2 aminoacylation ribozyme variant] | 2.99 | 2.8 | 5.23 | 3.94 | 2.83 | 13.6
CCACACUUCAAGCUAGCGGUC [Fam1B.1 aminoacylation ribozyme variant] | 0.75 | 0.921 | 0.984 | 0.714 | 0.911 | 0.856
CCACAGUUCAAGCAAUCGGCC [Fam1B.1 aminoacylation ribozyme variant] | 3.18 | 2.11 | 2.6 | 2.66 | 3.95 | 0.924
CUACUUCAAAAGAUCGGUCUG [Fam1A.1 aminoacylation ribozyme variant] | 0.938 | 0.973 | 0.859 | 0.728 | 0.724 | 1.08
